According to patent US7527954:

Target: biotinylated Calmodulin-binding peptide, biotin-…
Assay: model selection from a 4200:1 mixture (ED-B:Calmodulin templates) on peptide-coated magnetic beads; 35-cycle PCR, 1:10^5 dilution, real-time PCR on 1 µl; background carry-over of the excess non-binder

biotinylated Calmodulin-binding peptide, biotin-…, sequence (peptide, as listed by the source): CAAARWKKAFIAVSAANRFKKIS

DNA molecules detected after selection (DNA molecules): 1.4e+06
Substance: M.Hae III-ED-B fusion protein (covalently bonded to the linear DNA coding for it) (from UniProt P20589 1-330; P02751 1266-1356)
